Our source for the Kd values is article PMC10983988.

This data set addresses T1, m-TREX1 (Three Prime Repair Exonuclease 1, catalytic domain) (mouse, UniProt Q91XB0 1-242).
T1 sequence: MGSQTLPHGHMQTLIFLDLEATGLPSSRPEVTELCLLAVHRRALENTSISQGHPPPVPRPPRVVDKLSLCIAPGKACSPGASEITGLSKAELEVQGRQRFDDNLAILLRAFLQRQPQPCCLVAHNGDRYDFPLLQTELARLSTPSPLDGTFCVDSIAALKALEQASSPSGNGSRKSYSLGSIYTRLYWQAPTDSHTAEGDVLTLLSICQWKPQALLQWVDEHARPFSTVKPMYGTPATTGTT
In words: fluorescence polarization anisotropy. In general terms: Fluorescence polarisation rises when a labelled molecule tumbles more slowly, as on binding a larger partner.

B1: U3 unprocessed (dsDNA)
DNA 1: AGTGAATTAGCCCTTCCAGT
DNA 2: ACTGGAAGGGCTAATTCACT
The Kd is the equilibrium constant for the complex coming apart. Lower therefore signals tighter binding. Take B1: binding was characterised by a dissociation constant (Kd) of 118 ± 8.4 nM.

B2: U3 3'-processed (dsDNA)
DNA 1: AGTGAATTAGCCCTTCCA
DNA 2: ACTGGAAGGGCTAATTCACT
In turn, B2 showed a Kd of 216 ± 4.6 nM.
